Assay results: the Human Domainome abundance scans (Beltran et al. 2025)
± gives the uncertainty stated by the source.

B1: V(D)J recombination-activating protein 2, residues 415 to 491; numbered along this chain, P55895 (parent)
chain: YWITCCPTCDVDINTWVPFYSTELNKPAMIYCSHGDGHWVHAQCMDLAERTLIHLSAGSNKYYCNEHVEIARALHTP

Variants of: B1
Test: abundance fitness (aPCA) (normalised: wild type 0, dead -1); higher = more abundant; growth selection in yeast, the domain comes from the species named
Conditions: Homo sapiens

| Variant | abundance fitness |
| --- | --- |
| YWITCCPTCDVDINTWVPFYSTELNKPAMIYCSHGDGHWVHAQCMDLAERTWIHLSAGSNKYYCNEHVEIARALHTP | -0.006 ± 0.092 |
| YWITCCPTCDVDINTWVPFYSTELNKPAMIYCSHGDGHWVHAQCMDLAERTLIHLSAGSNKMYCNEHVEIARALHTP | -0.206 ± 0.19 |
| YWITCCPTCDVDINTWVPFYSTELNKPAMIYCSHGDGHWVHAQCMDLAERTLIHLSAGSNKTYCNEHVEIARALHTP | -0.152 ± 0.13 |
| YWITCCPTCDVDINTWVPFYSTELNKPAMIYCSHGCGHWVHAQCMDLAERTLIHLSAGSNKYYCNEHVEIARALHTP | -0.092 ± 0.26 |
| YWITCCPTCDVDINTWVPFYSTELNKPAMIECSHGDGHWVHAQCMDLAERTLIHLSAGSNKYYCNEHVEIARALHTP | -0.018 ± 0.095 |
| YWITCCPTCDVDINTWVPFYSTELNKPAMIYCSHGDGHWVHDQCMDLAERTLIHLSAGSNKYYCNEHVEIARALHTP | -0.762 ± 0.17 |
| YWITCCPTCDVDINTWVPFYSTELNKPAMIYCSHGDGHWVHAQCMDLAERTLIHLSAGFNKYYCNEHVEIARALHTP | -0.088 ± 0.097 |
| YWITCCPTCDVDINTWVPFYSTELNKPAMIYCSHGDGHWVHAQCMDLAERTLIHLSAGMNKYYCNEHVEIARALHTP | -0.042 ± 0.09 |
| YWITCCPTCDVDINTWVPFYSTELNKPAMIYCSHGDGHWVHAQCMDLAERTLIHLSAGSNKYYPNEHVEIARALHTP | -0.822 ± 0.26 |
| YWIYCCPTCDVDINTWVPFYSTELNKPAMIYCSHGDGHWVHAQCMDLAERTLIHLSAGSNKYYCNEHVEIARALHTP | -0.141 ± 0.12 |
| YWITCCPTCDVDINTWVPFYSTELNKPAMIYCSHGDGHWVHAQCMDLAPRTLIHLSAGSNKYYCNEHVEIARALHTP | 0.023 ± 0.075 |
| YWITCCPTCDVDINTWVPFYSTELNKPAMIYCSHGDGHWVHAQCMDLAERTLPHLSAGSNKYYCNEHVEIARALHTP | -0.163 ± 0.2 |
| YWITCCPTCDVDINTWVPFYSTELNKPAMIYCSHGDGHWVHAQCMDLAERTLIHLSAGSNKYYCNEHVEIARALHFP | -0.373 ± 0.17 |
| YWITCCPTCDVDINTWVPFYSTELNKPAMIYCSHGDGHWVHAQCMDLNERTLIHLSAGSNKYYCNEHVEIARALHTP | -0.339 ± 0.27 |
| YWITCCPTCDVDINTWVPFYSTELNKPAMIYCSHGDGHWVHAQCMPLAERTLIHLSAGSNKYYCNEHVEIARALHTP | -0.268 ± 0.087 |
| YWITCCPTCDVDINTWVPFYSTELNKPAMIYCSHGDGHWVHAQCMDLAERTLIHLSAGSNKYYCNEHVKIARALHTP | -0.183 ± 0.29 |
| YWITCCPTCDVDINTWVPFYSTELNKPAMIYCSHGDGHWVHAQCMDLAERTLIHLSAGSNKYYCNEHVEIARALHTW | -0.237 ± 0.38 |
| YWITCCPTCDVDINTWVPFYSTELNNPAMIYCSHGDGHWVHAQCMDLAERTLIHLSAGSNKYYCNEHVEIARALHTP | -0.03 ± 0.17 |

| Variant | abundance fitness |
| --- | --- |
| YWITCCPTCDVDINTWVPFYSTELNKPAMIYCSHGDGAWVHAQCMDLAERTLIHLSAGSNKYYCNEHVEIARALHTP | -0.986 ± 0.48 |
| YWITCCPTCDVDINTWVPFYSTELEKPAMIYCSHGDGHWVHAQCMDLAERTLIHLSAGSNKYYCNEHVEIARALHTP | 0.167 ± 0.17 |
| YWITCCPTCDVDANTWVPFYSTELNKPAMIYCSHGDGHWVHAQCMDLAERTLIHLSAGSNKYYCNEHVEIARALHTP | -0.149 ± 0.39 |
| YWITCCPTCDVDINTWVPFYSTELNKPAMIYCSHGDGHWVHAQCMDLAERTLIHLSAGSNKYECNEHVEIARALHTP | -0.068 ± 0.077 |
| YWITCCPTCDVDINTWVPFYSTELNKPAMIYLSHGDGHWVHAQCMDLAERTLIHLSAGSNKYYCNEHVEIARALHTP | -0.999 ± 0.13 |
| YWITCCPTCDVDINTWVPFYSTELNKPAMIYCSHGDGHWVHAQCMDLAERTLIHLSAGSNKYYCNEHVEIARQLHTP | 0.009 ± 0.14 |
| YWITCCPTCDVDINTWVPFYSTELNKPAMIYCSHGDGHWVHAQCMDLAERTLIHLSAGSNKYYCNEHVEIARILHTP | -0.042 ± 0.098 |
| YWITCCPTCDVDINTWVPFYSTELNKPAMIYCSHGDGHWVHAQCMDLAERTLIHLSAGSNKYYCNEHVEIARDLHTP | 0.019 ± 0.12 |
| YWITCCPTCDVDINTWVPFYSTELNKPAMIYCSHGDGHWVHARCMDLAERTLIHLSAGSNKYYCNEHVEIARALHTP | 0.129 ± 0.17 |
| YWITCCPTCDVDINTWVPFYSTELNKPAMIYCSHGDGHWVHAQCMDLAERTLIHLSAGSRKYYCNEHVEIARALHTP | -0.058 ± 0.056 |
| YWITCCPTCDVDINTWVPFYSTELNKPAMIYCVHGDGHWVHAQCMDLAERTLIHLSAGSNKYYCNEHVEIARALHTP | -0.157 ± 0.043 |
| YWITCCPTCDVDINTWVPFYSTELNKPAMIYCSHGDGHWVHAQCMDLAERTLIHLSAGSNKYYCNEHVEQARALHTP | -0.036 ± 0.089 |
| YWITCCPTCDVDINTWVPFYSTELNKPAMIYCSHGDGHWVHAQCMDLAERTLIHLSAGSNKYYCNEHVEIAFALHTP | -0.131 ± 0.18 |
| YWITCCPTCDVDINTWVPFYSTELNKPAMIYCSHGDGHWVHAQCMDLAERTLIHLSAGSNWYYCNEHVEIARALHTP | -0.159 ± 0.2 |
| YWITCCPTCDVDINTWVPFYSTELNKPAMIYCSHGDGHWVHAQCMDLAERTLIHLSAGSNEYYCNEHVEIARALHTP | -0.002 ± 0.16 |
| YWITCCPTCDVDINTWVPFYSTELNKPAMGYCSHGDGHWVHAQCMDLAERTLIHLSAGSNKYYCNEHVEIARALHTP | -0.644 ± 0.18 |
| YWITCCPTCDVDINTWVPFYSTELNKPAMRYCSHGDGHWVHAQCMDLAERTLIHLSAGSNKYYCNEHVEIARALHTP | -0.322 ± 0.22 |
| YWITCCPTCDVDINTWVPFYSTELNKPAMIYCSHGDGHWVHAQCMDLAERGLIHLSAGSNKYYCNEHVEIARALHTP | -0.048 ± 0.055 |
